Entries after “also recorded” stand apart in the source; their conditions may differ.
Assays:
[1] = system: hemextin A-hemextin B interaction; experiment: ITC, hemextin A-hemextin B interaction; assay type: binding, Hemachatus haemachatus
FVIIa = target: T1, FVIIa (Homo sapiens, UniProt P08709); experiment: ITC, binding of hemextin AB complex to FVIIa; details: 37° C.
T1 construct: from tissue; host or cells: human plasma
T1 sequence (P08709 61-212 limits assumed): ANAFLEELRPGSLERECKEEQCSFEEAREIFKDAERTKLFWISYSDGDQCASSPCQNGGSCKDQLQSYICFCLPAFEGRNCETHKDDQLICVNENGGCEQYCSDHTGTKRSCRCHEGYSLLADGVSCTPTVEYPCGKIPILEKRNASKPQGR
T1 sequence (P08709 213-466 limits assumed): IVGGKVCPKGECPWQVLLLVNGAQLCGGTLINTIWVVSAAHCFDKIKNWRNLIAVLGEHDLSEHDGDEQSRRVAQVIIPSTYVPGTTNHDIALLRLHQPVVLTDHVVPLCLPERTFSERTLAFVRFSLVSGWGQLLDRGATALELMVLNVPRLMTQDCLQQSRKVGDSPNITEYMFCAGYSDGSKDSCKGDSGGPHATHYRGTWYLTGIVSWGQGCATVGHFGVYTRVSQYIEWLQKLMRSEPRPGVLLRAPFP
Experimental: Isothermal titration calorimetry (ITC) studies—The interaction of anticoagulant hemextin AB complex with FVIIa was monitored with a VP-ITC titration calorimetric system (Microcal Inc., Northampton, Mass.). The instrument was calibrated using the built-in electrical calibration check. FVIIa (10 μM) in 50 mM Tris-HCl buffer and 10 mM CaCl2 (pH 7.4) in the calorimetric cell was titrated with reconstituted anticoagulant complex (0.2 mM) dissolved in the same buffer in a 250 μl injection syringe, with continual stirring at 300 rpm at 37° C. All the protein solutions were filtered and degassed prior to titration. […] The total heat content Q of the solution (determined relative to zero for the unliganded species) contained in the active cell volume, Vo, was calculated according to the following Equation 2, where K is the binding affinity constant, n is the number of sites, ΔH is the enthalpy of ligand binding, Mt and Xt is the bulk concentration of macromolecule and ligand, respectively, for the binding X+M ? […]
The change in heat (ΔQ) measured between the completions of two consecutive injections is corrected for dilution of the protein and ligand in the cell according to standard Marquardt methods. The free energy change (AG) during the interaction was calculated by using the relationship: ΔG=ΔH−TΔS=[…], where T is the absolute temperature and R is the universal gas constant.

FVIIa-sTF = target: T2, FVIIa-sTF (Homo sapiens, UniProt P08709); experiment: Kinetics of inhibition of FVIIa-sTF amidolytic activity on S-2288; assay type: biochemical
T2 construct: made in house; host or cells: Saccharomyces cerevisiae (sTF); human plasma (FVIIa)
T2 sequence (P13726 33-251 partner limits assumed, one chain of several): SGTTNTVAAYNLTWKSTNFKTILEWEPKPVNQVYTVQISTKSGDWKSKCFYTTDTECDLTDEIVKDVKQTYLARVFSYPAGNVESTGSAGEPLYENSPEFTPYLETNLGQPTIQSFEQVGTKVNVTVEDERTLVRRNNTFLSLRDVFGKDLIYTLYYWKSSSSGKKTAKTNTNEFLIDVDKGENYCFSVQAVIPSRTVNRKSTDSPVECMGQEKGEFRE
Experimental: Determination of kinetic constants for substrate hydrolysis—All studies were in assay buffer containing 50 mM Tris-HCl, pH 8.0, containing 150 mM NaCl, 10 mM CaCl2, and 1% BSA at 37° C. The kinetics of hydrolysis of the chromogenic substrate S-2288 by FVIIa-sTF was measured prior to examining the inhibitory effects of individual hemextins and the hemextin AB complex. Reactions were initiated by the addition of S-2288 (0-5 mM) to the individual wells of a 96-well plate containing FVIIa (30 nM) in complex with sTF (100 nM) in a final volume of 180 μl. Initial reaction velocities were measured as a linear increase in the absorbance at 405 nm (A405 nm) over 5 min, with a SPECTRAmax Plus® temperature-controlled microplate spectrophotometer (Molecular Devices, Sunnyvale, Calif.). The Km was derived from the nonlinear regression fit of the determined velocities, the value of which was 2.79 mM.
Kinetics of inhibition—The inhibitory potency of anticoagulant complex was measured over a range of substrate concentrations. Reactions were initiated by the addition of S-2288 to premixed enzyme-cofactor and inhibitor in the wells of a microtiter plate. Reactions with FVIIa-sTF contained 0.0125-0.05 μM of inhibitor complex and 0 to 3 mM of S-2288.
V=Vmax [S]/(1+[I]Ki)/{Km+[S]} (Eq. 1)

[2] = Size exclusion chromatography of hemextin AB complex in different buffers; assay type: physicochemical
Experimental: Size exclusion chromatography (SEC) studies—All SEC experiments were carried out at room temperature on a pre-packed Superdex 75 gel filtration column (1.6×60 cm) using a ÄKTA Purifier system (Amersham Biosciences, Uppsala, Sweden). The column was eluted with 50 mM Tris-HCl buffer (pH 7.4) or the specified elution buffer, at a flow rate of 1 ml/min. The sample volume applied to the column was 4 ml. The column was calibrated using ovomucoid (28 kD) ribonuclease (15.6 KD), cytochrome C (12 KD), apoprotinin (7 KD) and pelovaterin (4 KD) (20) as molecular weight markers. The void volume was determined by running Blue Dextran. The column was equilibrated with at least two bed volumes of the elution buffer prior to each run. Electrostatic contributions in the hemextin AB complex formation were studied by monitoring its elution in 50 mM Tris-HCl buffer (pH 7.4) of different concentrations of NaCl (75 mM and 150 mM). Hydrophobic contributions for the complex formation were determined by recording its elution in 50 mM Tris-HCl buffer (pH 7.4). In both studies, the column was first equilibrated with the desired buffer prior to the application of the reconstituted hemextin AB complex in the respective buffer to the column. Elution of protein was monitored by absorbance at 280 nm.

B1: hemextin AB complex: synergistic 1:1 tetrameric complex of hemextin A and hemextin B, reconstituted from equimolar proteins (protein)
chain 1: LKCKNKLVPFLSKTCPEGKNLCYKMTMLKMPKIPIKRGCTDACPKSSLLVKVVCCNKDKCN
chain 2: LKCKNKVVPFLKCKNKVVPFLCYKMTLKKVPKIPIKRGCTDACPKSSLLVNVMCCKTDKCN
B1 gave a Ka ([1]; 10 ° C., 50 mM Tris (pH 7.4)) of 640000 M⁻¹, a Ka ([1]; 25 ° C., 50 mM Tris (pH 7.4)) of 2.07e+06 M⁻¹ and a Ka ([1]; 37 ° C., 50 mM Tris (pH 7.4)) of 2.23e+06 M⁻¹. For the same molecule, the Ka ([1]; 37 ° C., 50 mM Tris (pH 7.4) + 35 mM NaCl) was 630000 M⁻¹, the Ka ([1]; 37 ° C., 50 mM Tris (pH 7.4) + 75 mM NaCl) was 330000 M⁻¹ and the Ka ([1]; 37 ° C., 50 mM Tris (pH 7.4) + 100 mM NaCl) was 20000 M⁻¹. The Ka ([1]; 37 ° C., 50 mM Tris (pH 7.4) + 125 mM glycerol) was 320000 M⁻¹, the Ka ([1]; 37 ° C., 50 mM Tris (pH 7.4) + 150 mM NaCl) was 2000 M⁻¹ and the Ka ([1]; 37 ° C., 50 mM Tris (pH 7.4) + 175 mM glycerol) was 200000 M⁻¹. The Ka ([1]; 37 ° C., 50 mM Tris (pH 7.4) + 250 mM glycerol) was 50000 M⁻¹, the Ka ([1]; 45 ° C., 50 mM Tris (pH 7.4)) was 1.97e+06 M⁻¹ and the “binding constant (Ka), hemextin AB complex formation” value ([1]; ITC) was 2.23e+06 M⁻¹. For the same molecule, the “ΔG of binding to FVIIa” value (FVIIa) was -7.543 kcal/M, the “K for the binding to FVIIa” value (FVIIa; 50 mM Tris-HCl, 10 mM CaCl2 (pH 7.4)) was 411000 M⁻¹ and the “nature of inhibition of FVIIa-sTF activity” value (FVIIa-sTF; S-2288, Lineweaver-Burk plots) was “non-competitively; also recorded: non-competitive inhibitor”. The Ki (FVIIa-sTF; S-2288, secondary plot) was 25 nM, the Kcat (FVIIa-sTF; [Inhibitor] 0.0125 μM) was 40.93 s⁻¹ and the Vmax (FVIIa-sTF; [Inhibitor] 0.0125 μM) was 7.37E−05. It also gave a Kcat (FVIIa-sTF; [Inhibitor] 0.0250 μM) of 30.58 s⁻¹, a Vmax (FVIIa-sTF; [Inhibitor] 0.0250 μM) of 5.51E−05 and a Kcat (FVIIa-sTF; [Inhibitor] 0.05 μM) of 20.87 s⁻¹. The Vmax (FVIIa-sTF; [Inhibitor] 0.05 μM) was 3.75E−05, the “SEC elution of the complex, 75 mM NaCl” value ([2]; 50 mM Tris-HCl (pH 7.4), 75 mM NaCl) was “the tetramer starts breaking down to dimer” and the “SEC elution of the complex, 150 mM NaCl” value ([2]; 50 mM Tris-HCl (pH 7.4), NaCl 150 mM) was “eluted mostly as a dimer and monomer”. For the same molecule, the “SEC elution of the complex, high glycerol concentration” value ([2]; Superdex 75, buffers containing glycerol) was “the tetramer breaks down to dimer and monomers”.

Reference: patent US20090180995A1, “NOVEL ANTICOAGULANT POLYPEPTIDES AND COMPLEX” (National University of Singapore, priority 2005, published 2009)
